Data from patent publication US20160200789A1, “IL4 CONJUGATED TO ANTIBODIES AGAINST EXTRACELLULAR MATRIX COMPONENTS” (PHILOGEN S.P.A., priority 2013, published 2016).

Legend:
TNF = target: T1, TNF (Homo sapiens, UniProt P01375); assay: Inhibition of TNF-mediated killing of LM fibroblasts; assay type: cell-based, mouse
T1 construct: host or cells: LM fibroblasts (mouse) as indicator cells
Source text: The murine fusion protein muTNFR-Fc (extracellular part of the murine p75-TNF receptor appended at the N-terminus of a murine IgG1 Fc portion, containing the hinge region) was expressed by stable transfection in CHO cells, according to the supplier's protocol. The fusion protein was purified from the culture supernatant by protein A chromatography, yielding a preparation which was pure in SDS-PAGE analysis and size exclusion chromatography (see FIGS. 2A and B). The biological activity of muTNFR-Fc was tested by inhibition of TNF-mediated killing of LM fibroblasts (see FIG. 2C). TNF inhibitors such as Enbrel™ and Humeira™ represent the standard of care in rheumatoid arthritis patients. muTNFR-Fc is a murine version of a TNF inhibitor for use in mouse models of the disease.

[1] = tested on: CHS-induced ear inflammation in K14-VEGF-A mice; assay: Contact hypersensitivity-induced ear inflammation in K14-VEGF-A mice; assay type: in vivo, mouse; settings: day 15
Source text: A delayed-type hypersensitivity reaction was induced in the ear skin of female FVB mice that overexpress VEGF-A in the epidermis under control of the human keratin 14 promoter as previously described (Detmar et al., 1998; Kunstfeld et al., 2004; Xia et al., 2003). Heterozygous VEGF-A transgenic mice with no pre-existing inflammatory lesions were sensitized by topical application of a 2% oxazolone (4-ethoxymethylene-2-phenyl-2-oxazoline-5-one; Sigma) solution in acetone/olive oil (4:1 vol/vol) to the shaved abdomen (50 μl) and each paw (5 μl). Five days after sensitization, the ears were challenged by topical application of 20 μl of a 1% oxazolone solution. Therapy was started on day 7 and repeated at day 9, 11 and 13. […] Ear thickness was measured every other day and at day 15, mice were sacrificed and ear draining lymph nodes were weighted. The timeline for this experiment is illustrated in FIG. 13A. Each treatment event is indicated by an arrow.

[2] = tested on: imiquimod (IMQ)-induced ear inflammation in C57BL/6 mice; assay: IMQ-induced inflammation model of psoriasis; assay type: in vivo, mouse; settings: day 13
Procedure: C57BL/6 mice (Charles River, Germany) were treated on each side of each ear with 5 mg Aldara cream (containing 0.25 mg Imiquimod). The treatment schedule is illustrated in FIG. 11A. The Aldara cream was applied every day for 5 days (on day 1, 2, 3, 4 5 and […]: each application is illustrated by an asterisk in FIG. 11A). Ear thickness was measured with a caliper before the application of the cream. […] Treatment was repeated on day 9 and 11 (each treatment event is illustrated by an arrow in FIG. 11A).

[3] = target: T2, EDA in the pancreas of diabetic mice (Mus musculus, UniProt P11276); assay: Immunofluorescence staining of pancreas of diabetic mice; settings: antibodies in SIP format, 2 μg/ml
T2 construct: from tissue; host or cells: pancreas of streptozotocin-treated diabetic C57BL/6J mice (frozen sections)
T2 sequence (P11276 33-2477): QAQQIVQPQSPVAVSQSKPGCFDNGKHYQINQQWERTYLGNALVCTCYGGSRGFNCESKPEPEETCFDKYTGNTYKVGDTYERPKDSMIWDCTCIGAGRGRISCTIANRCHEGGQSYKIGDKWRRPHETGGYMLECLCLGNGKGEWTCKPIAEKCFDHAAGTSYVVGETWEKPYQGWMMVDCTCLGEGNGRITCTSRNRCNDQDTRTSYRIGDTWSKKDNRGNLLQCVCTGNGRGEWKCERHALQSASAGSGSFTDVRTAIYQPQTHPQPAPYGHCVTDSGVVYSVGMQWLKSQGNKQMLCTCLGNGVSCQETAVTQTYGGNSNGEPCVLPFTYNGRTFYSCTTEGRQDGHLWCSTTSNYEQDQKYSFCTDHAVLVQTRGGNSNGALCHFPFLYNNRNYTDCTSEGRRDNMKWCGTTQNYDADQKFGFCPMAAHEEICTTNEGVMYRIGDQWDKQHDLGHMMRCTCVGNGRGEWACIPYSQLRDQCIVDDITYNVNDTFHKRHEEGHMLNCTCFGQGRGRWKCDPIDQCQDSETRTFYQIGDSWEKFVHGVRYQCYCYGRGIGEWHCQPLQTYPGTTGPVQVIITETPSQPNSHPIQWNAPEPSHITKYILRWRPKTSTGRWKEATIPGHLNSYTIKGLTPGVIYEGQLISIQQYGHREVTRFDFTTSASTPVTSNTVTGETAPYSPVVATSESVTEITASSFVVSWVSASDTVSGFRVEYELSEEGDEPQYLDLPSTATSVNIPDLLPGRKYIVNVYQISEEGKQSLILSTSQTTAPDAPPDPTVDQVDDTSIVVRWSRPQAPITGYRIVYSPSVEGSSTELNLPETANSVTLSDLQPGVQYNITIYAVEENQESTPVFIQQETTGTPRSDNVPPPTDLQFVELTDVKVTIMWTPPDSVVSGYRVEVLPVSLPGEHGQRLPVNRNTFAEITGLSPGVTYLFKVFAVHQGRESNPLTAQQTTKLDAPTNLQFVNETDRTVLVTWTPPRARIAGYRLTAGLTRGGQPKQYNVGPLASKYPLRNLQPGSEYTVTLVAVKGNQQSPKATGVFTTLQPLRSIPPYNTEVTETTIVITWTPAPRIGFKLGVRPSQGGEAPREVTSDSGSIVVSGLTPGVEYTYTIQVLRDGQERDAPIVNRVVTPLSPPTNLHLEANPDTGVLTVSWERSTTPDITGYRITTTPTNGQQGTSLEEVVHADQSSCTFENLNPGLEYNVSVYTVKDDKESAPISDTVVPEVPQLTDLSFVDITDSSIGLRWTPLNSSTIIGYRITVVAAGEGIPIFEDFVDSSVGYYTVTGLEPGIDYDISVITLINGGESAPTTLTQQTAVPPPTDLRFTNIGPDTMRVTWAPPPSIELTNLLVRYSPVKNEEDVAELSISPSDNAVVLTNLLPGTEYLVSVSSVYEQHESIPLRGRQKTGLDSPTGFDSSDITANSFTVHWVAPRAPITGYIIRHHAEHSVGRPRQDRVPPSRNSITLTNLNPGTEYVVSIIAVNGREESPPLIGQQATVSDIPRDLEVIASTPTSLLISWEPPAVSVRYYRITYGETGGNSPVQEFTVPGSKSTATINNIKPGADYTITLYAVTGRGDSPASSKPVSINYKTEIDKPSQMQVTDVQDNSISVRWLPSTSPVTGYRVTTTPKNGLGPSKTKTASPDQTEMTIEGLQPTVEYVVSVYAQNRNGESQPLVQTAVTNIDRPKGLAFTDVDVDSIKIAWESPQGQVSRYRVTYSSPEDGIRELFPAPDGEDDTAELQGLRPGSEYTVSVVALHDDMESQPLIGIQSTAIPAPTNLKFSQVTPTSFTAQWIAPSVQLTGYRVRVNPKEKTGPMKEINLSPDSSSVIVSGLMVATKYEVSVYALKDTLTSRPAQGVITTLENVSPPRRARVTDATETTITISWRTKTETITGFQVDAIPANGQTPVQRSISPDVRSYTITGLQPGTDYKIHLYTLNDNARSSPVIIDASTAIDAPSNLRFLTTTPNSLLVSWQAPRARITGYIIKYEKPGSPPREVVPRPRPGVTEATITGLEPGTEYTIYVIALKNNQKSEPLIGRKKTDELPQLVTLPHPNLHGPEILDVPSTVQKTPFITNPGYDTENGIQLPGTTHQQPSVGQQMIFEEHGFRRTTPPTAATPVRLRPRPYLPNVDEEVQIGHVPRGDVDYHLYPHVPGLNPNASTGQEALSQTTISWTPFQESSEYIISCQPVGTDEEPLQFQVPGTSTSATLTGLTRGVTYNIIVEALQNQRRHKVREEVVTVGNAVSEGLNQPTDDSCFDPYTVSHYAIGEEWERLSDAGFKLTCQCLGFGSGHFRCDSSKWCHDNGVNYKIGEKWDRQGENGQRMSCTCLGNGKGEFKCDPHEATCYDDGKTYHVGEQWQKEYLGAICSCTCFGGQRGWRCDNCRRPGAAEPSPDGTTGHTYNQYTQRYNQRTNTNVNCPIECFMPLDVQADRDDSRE
Procedure: Type 1 diabetes is an autoimmune disease characterized by progressive destruction of pancreatic beta-cells. IL4 has been previously proposed as a potential medicament for preventing diabetes mellitus type 1 (Walz et al. 2002). Six week old C57BL/6J male mice were treated for 5 consecutive days with Streptozotocin (50 mg/kg by intraperitoneal [i.p.] injection). Blood glucose levels were recorded daily and mice were deemed diabetic if their non-fasted blood glucose levels were >300-400 mg/decilitre (dL). Pancreatic tissue was collected from the diabetic mice and snap frozen before cutting and staining. The staining procedure was performed according to the method set out in Pfaffen et al., Eur. J. Nucl. Med. Mol. Imaging (2010). Briefly, purified antibodies in SIP format (2 μg/ml), including antibody F8 (SEQ ID NO: 69), were added onto the sections and detected with a rabbit […] antibody (Dako). A further incubation with the fluorescently labelled goat anti-rabbit IgG Alexa Fluor 488 antibody (Life Technologies) was performed prior to imaging. Blood vessels and cell nuclei were detected using a rat anti-mouse CD31 antibody (BD Bioscience) followed incubation with a donkey anti-rat Alexa 594 antibody (Life Technologies), and DAPI, respectively. The filled white arrows in FIG. 19 indicate CD31^+ blood vessels. […]

T1 sequence (P01375 77-233 limits assumed, species assumed): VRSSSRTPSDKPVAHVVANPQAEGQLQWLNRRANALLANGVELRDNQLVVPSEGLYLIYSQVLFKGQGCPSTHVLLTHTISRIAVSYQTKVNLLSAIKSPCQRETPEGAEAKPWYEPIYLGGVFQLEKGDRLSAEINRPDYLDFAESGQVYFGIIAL

Row | Molecule | inhibition of TNF induced killing of mouse fibroblasts (TNF) | ear draining lymph nodes (weight) [1] | ear draining lymph nodes (weight) [2] | colocalization of staining with CD31+ blood vessels [3]
1 | muTNFR-Fc: extracellular part of the murine p75-TNF receptor appended at the N-terminus of a murine IgG1 Fc portion; murine version of Enbrel (protein) VPAQVVLTPYKPEPGYECQISQEYYDRKAQMCCAKCPPGQYVKHFCNKTSDTVCADCEASMYTQVWNQFRTCLSCSSSCTTDQVEIRACTKQQNRVCACEAGRYCALKTHSGSCRQCMRLSKCGPGFGVASSRAPNGNVLCKACAPGTFSDTTSSTDVCRPHRICSILAIPGNASTDAVCAPESPTLSAIPRTLYVSQPEPTRSQPLDQEPGPSQTPSILTSLGSTPIIEQSTKGGVPRDCGCKPCICTVPEVSSVFIFPPKPKDVLTITLTPKVTCVVVDISKDDPEVQFSWFVDDVEVHTAQTKPREEQFNSTFRSVSELPIMHQDWLNGKEFKCRVNSAAFPAPIEKTISKTKGRPKAPQVYTIPPPKEQMAKDKVSLTCMITDFFPEDITVEWQWNGQPAENYKNTQPIMDTDGSYFVYSKLNVQKSNWEAGNTFTCSVLHEGLHNHHTEKSLSHSPGK | inhibits TNF induced killing of mouse fibroblasts | smaller | smaller | 
2 | SIP (F8): antibody F8 in SIP format (scFv fused to epsilon-CH4 domain of human IgE) (protein) EVQLLESGGGLVQPGGSLRLSCAASGFTFSLFTMSWVRQAPGKGLEWVSAISGSGGSTYYADSVKGRFTISRDNSKNTLYLQMNSLRAEDTAVYYCAKSTHLYLFDYWGQGTLVTVSSGGGGSGGGGSGGGGEIVLTQSPGTLSLSPGERATLSCRASQSVSMPFLAWYQQKPGQAPRLLIYGASSRATGIPDRFSGSGSGTDFTLTISRLEPEDFAVYYCQQMRGRPPTFGQGTKVEIKSGGSGGPRAAPEVYAFATPEWPGSRDKRTLACLIQNFMPEDISVQWLHNEVQLPDARHSTTQPRKTKGSGFFVFSRLEVTRAEWEQKDEFICRAVHEAASPSQTVQRAVSVNPESSRRGGC |  |  |  | colocalization of EDA and CD31 in the pancreas of diabetic mice
